Our source for the T cell expansion in TPO 50 ng/ml (cell number by day 7 from 3x10^6 cells) values is patent US20200016207A1, “[…] c-MPL PROVIDES LIGAND-DEPENDENT CO-STIMULATION AND CYTOKINE SIGNALS TO TCR-ENGINEERED T CELLS” (Baylor College of Medicine, priority 2017, published 2020).

This experiment addresses hematopoietic growth factor receptor c-MPL (myeloproliferative leukemia), the receptor for thrombopoietin, transgenic on human T cells (Homo sapiens (Human)) (UniProt P40238). The experiment can be described thus: cell-based or functional assay.

“recombinant human thrombopoietin (TPO) (from UniProt P40225 22-195) (ligand)” showed a T cell expansion in TPO 50 ng/ml (cell number by day 7 from 3x10^6 cells) of 7.44e+06 cells.
